Measurements published in patent publication US8309523 (VIB VZW, dated 2012).
Residue numbers refer to the chain shown, from its start.

B1: BCL10 (other, UniProt O95999 1-233, looked up)
chain: MEPTAPSLTEEDLTEVKKDALENLRVYLCEKIIAERHFDHLRAKKILSREDTEEISCRTSSRKRAGKLLDYLQENPKGLDTLVESIRREKTQNFLIQKITDEVLKLRNIKLEHLKGLKCSSCEPFPDGATNNLSRSNSDESNFSEKLRASTVMYHPEGESSTTPFFSTNSSLNLPVLEVGRTENTIFSSTTLPRPGDPGAPPLPPDLQLEEEGTCANSSEMFLPLRSRTVSRQ
notes: Co-precipitated from lysates of human cell lines
B2: TRAF6 (other, UniProt Q9Y4K3 1-522, looked up)
chain: MSLLNCENSCGSSQSESDCCVAMASSCSAVTKDDSVGGTASTGNLSSSFMEEIQGYDVEFDPPLESKYECPICLMALREAVQTPCGHRFCKACIIKSIRDAGHKCPVDNEILLENQLFPDNFAKREILSLMVKCPNEGCLHKMELRHLEDHQAHCEFALMDCPQCQRPFQKFHINIHILKDCPRRQVSCDNCAASMAFEDKEIHDQNCPLANVICEYCNTILIREQMPNHYDLDCPTAPIPCTFSTFGCHEKMQRNHLARHLQENTQSHMRMLAQAVHSLSVIPDSGYISEVRNFQETIHQLEGRLVRQDHQIRELTAKMETQSMYVSELKRTIRTLEDKVAEIEAQQCNGIYIWKIGNFGMHLKCQEEEKPVVIHSPGFYTGKPGYKLCMRLHLQLPTAQRCANYISLFVHTMQGEYDSHLPWPFQGTIRLTILDQSEAPVRQNHEEIMDAKPELLAFQRPTIPRNPKGFGYVTFMHLEALRQRTFIKDDTLLVRCEVSTRFDMGSLRREGFQPRSTDAGV
notes: as for B1

Key:
MALT1-C464A (bio-tagged) [1] = molecular target: T1, MALT1-C464A (bio-tagged) (human, UniProt Q9UDY8 1-824); test: co-IP (bio-IP, immunoblot)
T1 construct: also called C464A mutant; C464 mutant
T1 sequence (looked up): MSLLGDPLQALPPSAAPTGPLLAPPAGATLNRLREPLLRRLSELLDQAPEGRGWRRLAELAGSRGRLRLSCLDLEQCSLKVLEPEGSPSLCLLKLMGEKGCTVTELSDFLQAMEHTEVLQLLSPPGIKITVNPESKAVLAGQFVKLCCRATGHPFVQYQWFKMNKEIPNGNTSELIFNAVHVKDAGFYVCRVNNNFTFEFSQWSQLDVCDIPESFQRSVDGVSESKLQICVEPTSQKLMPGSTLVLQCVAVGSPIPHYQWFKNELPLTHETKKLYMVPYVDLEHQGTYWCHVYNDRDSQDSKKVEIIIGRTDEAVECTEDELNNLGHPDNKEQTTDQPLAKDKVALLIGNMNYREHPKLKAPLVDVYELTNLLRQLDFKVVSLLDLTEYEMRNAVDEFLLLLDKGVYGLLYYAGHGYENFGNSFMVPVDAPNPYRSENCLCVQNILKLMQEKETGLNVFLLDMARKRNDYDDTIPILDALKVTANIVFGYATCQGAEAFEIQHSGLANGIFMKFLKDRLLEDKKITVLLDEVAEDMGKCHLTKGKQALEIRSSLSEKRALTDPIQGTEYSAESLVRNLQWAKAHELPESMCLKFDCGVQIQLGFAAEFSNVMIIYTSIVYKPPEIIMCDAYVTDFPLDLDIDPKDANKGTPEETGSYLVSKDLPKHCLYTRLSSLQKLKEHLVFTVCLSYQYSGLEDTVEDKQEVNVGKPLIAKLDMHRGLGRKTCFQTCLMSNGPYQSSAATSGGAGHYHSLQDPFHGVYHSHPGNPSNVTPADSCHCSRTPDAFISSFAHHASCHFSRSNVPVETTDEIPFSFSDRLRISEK

[2] = molecular target: T2, MALT1 (wild type, Flag- and Avi-tagged bio-construct) (human, UniProt Q9UDY8 1-824, Avi-tag biotinylated in vivo by co-expressed BirA); test: immunoblots of bio-IPs from Jurkat cells with stable expression
T2 construct: also called paracaspase; bio-IP purified MALT1
T2 sequence (looked up): T1 sequence (looked up) with A464C

MALT1-C464A (bio-tagged) [3] = molecular target: T1, MALT1-C464A (bio-tagged); test: as above
MALT1-R149A (bio-tagged) = molecular target: T3, MALT1-R149A (bio-tagged) (human, UniProt Q9UDY8 1-824, Avi-tag biotinylated in vivo by co-expressed BirA); test: as above
T3 construct: also called R149A mutant
T3 sequence (looked up): T1 sequence (looked up) with R149A, A464C

Binder	binding result (MALT1-C464A (bio-tagged) [1])	binding result [2]	binding result (MALT1-C464A (bio-tagged) [3])	binding result (MALT1-R149A (bio-tagged))
B1	binds	binds	–	–
B2	–	–	binds	binds
